According to the RNAGym collection of RNA variant scans (doi:10.1073/pnas.2313332121):

B1: TPR t1 (parent)
chain: GACCAAUCUGCCCUCAGAGCUCGAGAACAUCUUCGGAUGCAGAGGAGGCAGGCUUCGGUGGCGCGAUAGCGCCAACGUCCUCAACCUCCAAUGCAUCCCACCACAUGAUGAUGCCUGAAGAGCCUUGGUUUUUUG

Variants of: B1
Test: polymerase ribozyme fitness, log enrichment relative to wild type (log ratio); higher = more active; in vitro selection for triplet polymerase activity
Summary of the method: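 Both subunits of a heterodimeric triplet polymerase ribozyme were given their own mutant library, built by PCR and transcribed. Each library was annealed with a biotinylated primer, the partner subunit and triplets, incubated frozen at −7 °C, and its extended constructs gel-excised, captured on streptavidin beads and amplified by RT-PCR, all in one round done in triplicate. Fitness is the logarithm of genotype enrichment relative to wild-type enrichment, with replicates averaged by inverse-variance weighting. That logarithm is base 2, and Illumina-sequenced genotypes needed ≥10 input reads and ≥1 read per output.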

| Variant | polymerase ribozyme fitness (log ratio) |
| --- | --- |
| GACCAAUCUGCCCUCAGAGCUCGAGAACAUCUUCGGAUGCAGAGGAGACAGGCUUCGGUGGCGCGAUAGCGCCAACGUCCUCAACAUCCAAUGCAUCCCACCACAUGAUGAUGCCUGAAGAGCCUUGGUUUUUUG [G48A C86A] | -0.909 |
| GACCAAUCUGCCCUCAGAGCUCGAGAACAUCUUCGGAUGCAGAGGAGACAGGCUUCGGUGGCGCGAUAGCGCCAACGUCCUCAACUUCCAAUGCAUCCCACCACAUGAUGAUGCCUGAAGAGCCUUGGUUUUUUG [G48A C86U] | -0.5 |
| GACCAAUCUGCCCUCAGAGCUCGAGAACAUCUUCGGAUGCAGAGGAGACAGGCUUCGGUGGCGCGAUAGCGCCAACGUCCUCAACCUGCAAUGCAUCCCACCACAUGAUGAUGCCUGAAGAGCCUUGGUUUUUUG [G48A C88G] | -0.075 |
| GACCAAUCUGCCCUCAGAGCUCGAGAACAUCUUCGGAUGCAGAGGAGACAGGCUUCGGUGGCGCGAUAGCGCCAACGUCCUCAACCUCUAAUGCAUCCCACCACAUGAUGAUGCCUGAAGAGCUUUGGUUUUUUG [G48A C89U C124U] | 0.551 |
| GACCAAUCUGCCCUCAGAGCUCGAGAACAUCUUCGGAUGCAGAGGAGACAGGCUUCGGUGGCGCGAUAGCGCCAACGUCCUCAACCUCCAAUGGAUCCCACCACAUGAUGAUGCCUGAAGAGCCUUGGUUUUUUG [G48A C94G] | -1.71 |
| GACCAAUCUGCCCUCAGAGCUCGAGAACAUCUUCGGAUGCAGAGGAGACAGGCUUCGGUGGCGCGAUAGCGCCAACGUCCUCAACCUCCAAUGCAUCCCACCAUAUGAUGAUGCCUGAAGAGCCUUGGUUUUUUG [G48A C104U] | -1.25 |
| GACCAAUCUGCCCUCAGAGCUCGAGAACAUCUUCGGAUGCAGAGGAGACAGGCUUCGGUGGCGCGAUAGCGCCAACGUCCUCAACCUCCAAUGCAUCCCACCACAUGAUGAUGACUGAAGAGCCUUGGUUUUUUG [G48A C114A] | -2.8 |
| GACCAAUCUGCCCUCAGAGCUCGAGAACAUCUUCGGAUGCAGAGGAGACAGGCUUCGGUGGCGCGAUAGCGCCAACGUCCUCAACCUCCAAUGCAUCCCACCACAUGAUGAUGCCUGAAGAGCUUUGGUUUUUUG [G48A C124U] | 1.15 |
| GACCAAUCUGCCCUCAGAGCUCGAGAACAUCUUCGGAUGCAGAGGAGACAGGCUUCAGUUGCGCGAUAGCGCCAACGUCCUCAACCUCCAAUGCAUCCCACCACAUGAUGAUGCCUGAAAAGCCUUGGUUUUUUG [G48A G57A G60U G120A] | -0.327 |
| GACCAAUCUGCCCUCAGAGCUCGAGAACAUCUUCGGAUGCAGAGGAGACAGGCUUCGGUAGCGCGAUAGCGCCAACGCCCUCAACCUCCAAUGCAUCCCACCACAUGAAUAUGCCUGAAGAGCCUUGGUUUUUUG [G48A G60A U78C U109A G110U] | -4.9 |
| GACCAAUCUGCCCUCAGAGCUCGAGAACAUCUUCGGAUGCAGAGGAGACAGGCUUCGGUGACGCGAUAGCGCCAACGUCCUCAACCUCCAAUGCAUCCCACCACAUGAUGAUGCCUGAAGAGCCUUGGUUUUUUG [G48A G61A] | -0.0923 |
| GACCAAUCUGCCCUCAGAGCUCGAGAACAUCUUCGGAUGCAGAGGAGACAGGCUUCGGUGACGCGAUAGCGCCAACGUCCUCAACCUCCAAUGCAUCCCACCACAUGAUGAUGCCUGAAGAGCCUUGGUAUUUUG [G48A G61A U130A] | -0.668 |
| GACCAAUCUGCCCUCAGAGCUCGAGAACAUCUUCGGAUGCAGAGGAGACAGGCUUCGGUGUCGCGAUAGCGCCAACGCCCUCAACCUCCAAUGCAUCCCACCACAUGAUGAUGCCUGAAGAGCCUUGGUUUUUUG [G48A G61U U78C] | -0.213 |
| GACCAAUCUGCCCUCAGAGCUCGAGAACAUCUUCGGAUGCAGAGGAGACAGGCUUCGGUGGCACGAUAGCGCCAACGUCCUCAACCUCCAAUGCAUCCCACCACAUGAUGAUGCCUGAAGAGCCUUGGUUUUUUG [G48A G63A] | -1.14 |
| GACCAAUCUGCCCUCAGAGCUCGAGAACAUCUUCGGAUGCAGAGGAGACAGGCUUCGGUGGCACGAUAGCGCCAACGUCCUCAACCUCCAAUGCAUCCCACCACAUGAUGAUGCCUGAAGAGCCUUGGUUUUGUG [G48A G63A U133G] | -1.13 |
| GACCAAUCUGCCCUCAGAGCUCGAGAACAUCUUCGGAUGCAGAGGAGACAGGCUUCGGUGGCUCGAUAGCGCCAACGUCCUGAACCUCCAUUGCAUCCCACCACAUGAUGAUGCCUCAAGAGCCUUGGUUUUUUG [G48A G63U C82G A91U G117C] | -5.43 |
| GACCAAUCUGCCCUCAGAGCUCGAGAACAUCUUCGGAUGCAGAGGAGACAGGCUUCGGUGGCGCGAUACCGCCAACGUCCUCAACCUCCAAUGCAUCCCACCACAUGAUGAUGCCUGAAGAGCCUUGGUUUUUUG [G48A G69C] | -1.33 |
| GACCAAUCUGCCCUCAGAGCUCGAGAACAUCUUCGGAUGCAGAGGAGACAGGCUUCGGUGGCGCGAUAUCGCCAACGUCCUCAACCUCCAAUGCAUCCCACCACAUGAUGAUGCCUGAAGAGCCUUGGUUUUUUG [G48A G69U] | 1.02 |
| GACCAAUCUGCCCUCAGAGCUCGAGAACAUCUUCGGAUGCAGAGGAGACAGGCUUCGGUGGCGCGAUAGCGCCAACGUCCUCAACCUCCAAUGCAUCCCACCACAUGAUCAUGCCUGAAGAGCCUUGGUUUUUUG [G48A G110C] | -4.33 |
| GACCAAUCUGCCCUCAGAGCUCGAGAACAUCUUCGGAUGCAGAGGAGACAGGCUUCGGUGGCGCGAUAGCGCCAACGUCCUCAACCUCCAAUGCAUCCCACCACAUGAUGAUGCCUGAACAGCCUUGGUUUUUUG [G48A G120C] | 0.921 |
| GACCAAUCUGCCCUCAGAGCUCGAGAACAUCUUCGGAUGCAGAGGAGACAGGCUUCGGUGGCGCGAUAGCGCCAACGUCCUCAACCUCCAAUGCAUCCCACCACAUGAUGAUGCCUGAAGAGCCUUGGUUUUUUU [G48A G135U] | -1.08 |
